Data taken from patent publication US8034784B2, “Method of suppressing or reducing IL-TIF-induced inflammation, or treating associated conditions thereof, using Zcytor16” (ZymoGenetics, Inc., priority 1999, dated 2011).

How the values were obtained:
IL-TIF [1] = molecular target: T1, IL-TIF (Homo sapiens, UniProt Q9GZX6); test: Inhibition of IL-TIF activation of luciferase reporter in MES 13 cells by zcytor16-Fc4; type: cell-based; conditions: even at the highest dose of IL-TIF used
T1 sequence (Q9GZX6 34-179): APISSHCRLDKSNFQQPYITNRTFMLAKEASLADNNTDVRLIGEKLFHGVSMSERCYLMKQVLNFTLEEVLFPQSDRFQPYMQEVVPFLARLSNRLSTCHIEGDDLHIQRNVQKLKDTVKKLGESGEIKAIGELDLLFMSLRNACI
Procedure: MES 13 cells (ATCC No. CRL-1927) were plated at 10,000 cells/well in 96-well tissue culture clusters (Costar) in DMEM growth medium (Life Technologies) supplemented with pyruvate and 10% serum (HyClone). Next day, the medium was switched to serum free DMEM medium by substituting 0.1% BSA (Fraction V; Sigma) for serum. This medium also contained the adenoviral construct KZ136 (below) that encodes a luciferase reporter mini-gene driven by SRE and STAT elements, at a 1000:1 multiplicity of infection (m.o.i.), i.e. 1000 adenoviral particles per cell. After allowing 24 h for the incorporation of the adenoviral construct in the cells, the media were changed and replaced with serum-free media. Human recombinant IL-TIF with or without a recombinant zcytor16-Fc4 fusion was added at the indicated final concentration in the well (as described in Table 11, below). Dilutions of both the IL-TIF and zcytor16-Fc4 were performed in serum-free medium. 0.1% BSA was added for a basal assay control. 4 h later, cells were lysed and luciferase activity, denoting activation of the reporter gene, was determined in the lysate using an Luciferase Assay System assay kit (Promega) and a Labsystems Luminoskan luminometer (Labsystems, Helsinki, Finland). Activity was expressed as luciferase units (LU) in the lysate.
The construction of the adenoviral KZ136 vector was as follows. […]

IL-TIF [2] = molecular target: T1, IL-TIF; test: Antagonism of IL-TIF-induced proliferation of BaF3/CRF2-4/zcytor11 cells (Alamar Blue); type: cell-based; set-up: made in house; host or cells: BHK 570 cells, pHZ200-CEE vector, purified from conditioned media; conditions: zcytor16 at 10 μg/ml; IL-TIF at all concentrations (0.06-50 ng/ml)
Text: Purified IL-TIF-CEE (Example 19) was used to test for the presence of proliferation activity as described below. Purified zcytor16-Fc4 (Example 11) was used to antagonize the proliferative response of the IL-TIF in this assay as described below.
BaF3/CRF2-4/zcytor11 cells were spun down and washed in the complete media, described in Example 7A above, but without mIL-3 (hereinafter referred to as “mIL-3 free media”). The cells were spun and washed 3 times to ensure the removal of the mIL-3. Cells were then counted in a hemacytometer. Cells were plated in a 96-well format at 5000 cells per well in a volume of 100 μl per well using the mIL-3 free media.
Proliferation of the BaF3/CRF2-4/zcytor11 cells was assessed using IL-TIF-CEE protein diluted with mIL-3 free media to 50, 10, 2, 1, 0.5, 0.25, 0.13, 0.06 ng/ml concentrations. 100 μl of the diluted protein was added to the BaF3/CRF2-4/zcytor11 cells. […] Alamar Blue gives a fluourometric readout based on number of live cells, and is thus a direct measurement of cell proliferation in comparison to a negative control. […] Plates were read on the Finax™ plate reader (Molecular Devices Sunnyvale, Calif.) using the SoftMax™ Pro program, at wavelengths 544 (Excitation) and 590 (Emmission). […] The response, as measured, was approximately 15-fold over background at the high end of 50 ng/ml down to a 2-fold induction at the low end of 0.06 ng/ml. […]

IL-TIF [3] = molecular target: T1, IL-TIF; test: COS cell secretion trap binding assay; set-up: expressed in transfected cells; host or cells: COS cells, pZP7 expression vector; conditions: 1-3 μg/ml zcytor16sR-Fc4, COS cells transfected with human IL-TIF cDNA
Procedure: COS cell transfections were performed as follows: A mixture of 0.5 μg DNA and 5 μl lipofectamine (Gibco BRL) in 92 ul serum free DMEM media (55 mg sodium pyruvate, 146 mg L-glutamine, 5 mg transferrin, 2.5 mg insulin, 1 μg selenium and 5 mg fetuin in 500 ml DMEM) was incubated at room temperature for 30 minutes and then 400 μl serum free DMEM media added. A 500 μl mixture was added onto COS cells plated on 12-well tissue culture plate at 1.5×10^5 COS cells/well and previously incubated for 5 hours at 37° C. An additional 500 μl 20% FBS DMEM media (100 ml FBS, 55 mg sodium pyruvate and 146 mg L-glutamine in 500 ml DMEM) was added and the plates were incubated overnight.
The secretion trap was performed as follows: Media was rinsed off cells with PBS and fixed for 15 minutes with 1.8% Formaldehyde in PBS. Cells were then washed with TNT (0.1M Tris-HCl, 0.15M NaCl, and 0.05% Tween-20 in H2O). Cells were permeated with 0.1% Triton-X in PBS for 15 minutes and washed again with TNT. […]

[4] = tested on: BaF3/CRF2-4/zcytor11 cells; test: Alamar Blue proliferation assay, BaF3/CRF2-4/zcytor11 cells; type: cell-based, murine; conditions: 3 days, then Alamar Blue
Procedure: BaF3, an interleukin-3 (IL-3) dependent pre-lymphoid cell line derived from murine bone marrow (Palacios and Steinmetz, Cell 41: 727-734, 1985; Mathey-Prevot et al., Mol. Cell. Biol. 6: 4133-4135, 1986), was maintained in complete media (RPMI medium (JRH Bioscience Inc., Lenexa, Kans.) supplemented with 10% heat-inactivated fetal calf serum, 2 ng/ml murine IL-3 (mIL-3) (R & D, Minneapolis, Minn.), 2 mM L-glutaMax-1™ (Gibco BRL), 1 mM Sodium Pyruvate (Gibco BRL), and PSN antibiotics (GIBCO BRL)). Prior to electroporation, CRF2-4/pZP7P was prepared and purified using a Qiagen Maxi Prep kit (Qiagen) as per manufacturer's instructions. […]
BaF3/CRF2-4/zcytor11 cells were spun down and washed in the complete media, described in Example 7A above, but without mIL-3 (hereinafter referred to as “mIL-3 free media”). […] Cells were then counted in a hemacytometer. […]
Proliferation of the BaF3/CRF2-4/zcytor11 cells was assessed using IL-TIF-CEE protein diluted with mIL-3 free media to 50, 10, 2, 1, 0.5, 0.25, 0.13, 0.06 ng/ml concentrations. […] Alamar Blue gives a fluourometric readout based on number of live cells, and is thus a direct measurement of cell proliferation in comparison to a negative control. […] Plates were read on the Finax™ plate reader (Molecular Devices Sunnyvale, Calif.) using the SoftMax™ Pro program, at wavelengths 544 (Excitation) and 590 (Emmission). […]

Molecule | antagonism of the response of MES 13 cells to IL-TIF (IL-TIF [1]) | proliferative response to IL-TIF in the presence of zcytor16 (IL-TIF [2]) | binding of zcytor16sR/Fc4 to COS cells transfected with human IL-TIF (IL-TIF [3]) | proliferative response (induction) ([4]; IL-TIF-CEE 0.06 ng/ml) [fold induction] | proliferative response over background ([4]; IL-TIF-CEE 50 ng/ml)
zcytor16-Fc4: soluble zcytor16 polypeptide (residue 22 to 231 of SEQ ID NO:2; SEQ ID NO:13) fused to a C-terminal Fc4 tag (protein) TQSTHESLKPQRVQFQSRNFHNILQWQPGRALTGNSSVYFVQYKIYGQRQWKNKEDCWGTQELSCDLTSETSDIQEPYYGRVRAASAGSYSEWSMTPRFTPWWETKIDPPVMNITQVNGSLLVILHAPNLPYRYQKEKNVSIEDYYELLYRVFIINNSLEKEQKVYEGAHRAVEIEALTPHSSYCVVAEIYQPMLDRRSQRSEERCVEIPEPRSSDKTHTCPPCPAPEAEGAPSVFLFPPKPKDTLMISRTPEVTCVVVDVSHEDPEVKFNWYVDGVEVHNAKTKPREEQYNSTYRVVSVLTVLHQDWLNGKEYKCKVSNKALPSSIEKTISKAKGQPREPQVYTLPPSRDELTKNQVSLTCLVKGFYPSDIAVEWESNGQPENNYKTTPPVLDSDGSFFLYSKLTVDKSRWQQGNVFSCSVMHEALHNHYTQKSLSLSPGK | effectively blocks the response to IL-TIF | brought down to background | positive binding | – | –
IL-TIF-CEE: human IL-TIF polypeptide (SEQ ID NO:15) containing C-terminal GluGlu (EE) tag, purified from BHK cells; ligand of zcytor16 (protein, listed as Homo sapiens, C-terminal GluGlu tag, ligand of zcytor16) MAALQKSVSSFLMGTLATSCLLLLALLVQGGAAAPISSHCRLDKSNFQQPYITNRTFMLAKEASLADNNTDVRLIGEKLFHGVSMSERCYLMKQVLNFTLEEVLFPQSDRFQPYMQEVVPFLARLSNRLSTCHIEGDDLHIQRNVQKLKDTVKKLGESGEIKAIGELDLLFMSLRNACI | – | – | – | 2 | approximately 15 fold over background
